Test results taken from PMC2193136.

Assays:
[1] = target: HLA-DR2 (DRA1*0101/DRB1*1501) molecules, detergent-solubilized, purified from S2 cells (human); experiment: peptide binding inhibition assay
[2] = target: HLA-DR2 (DRA1*0101/DRB1*1501) molecules, detergent-solubilized, purified from S2 cells (human); experiment: competition peptide-binding assay

HLA-DQw6 peptide corresponding to residues 43–58
IC50 [1]: 70 nM

MBP 85–96 truncated peptide
IC50 [2]: 20 nM

MBP 85–97 truncated peptide
IC50 [2]: 15 nM

MBP 85–98 truncated peptide
IC50 [2]: 4 nM

MBP 85–99 analogue 85 (E→A) (peptide)
IC50 [2]: 7 nM

MBP 85–99 analogue 86 (N→A) (peptide)
IC50 [2]: 7 nM

MBP 85–99 analogue 87 (P→A) (peptide)
IC50 [2]: 10 nM

MBP 85–99 analogue 88 (V→A) (peptide)
IC50 [2]: 10 nM

MBP 85–99 analogue 89 (V→A) (peptide)
IC50 [2]: 50 nM

MBP 85–99 analogue 90 (H→A) (peptide)
IC50 [2]: 10 nM

MBP 85–99 analogue 91 (F→A) (peptide)
IC50 [2]: 10 nM

MBP 85–99 analogue 92 (F→Y) (peptide)
IC50 [2]: 12 nM

MBP 85–99 analogue 93 (K→A) (peptide)
IC50 [2]: 4 nM

MBP 85–99 analogue 94 (N→A) (peptide)
IC50 [2]: 4 nM

MBP 85–99 analogue 95 (I→A) (peptide)
IC50 [2]: 4 nM

MBP 85–99 analogue 96 (V→A) (peptide)
IC50 [2]: 4 nM

MBP 85–99 analogue 97 (T→A) (peptide)
IC50 [2]: 4 nM

MBP 85–99 analogue 98 (P→A) (peptide)
IC50 [2]: 5 nM

MBP 85–99 analogue 99 (R→A) (peptide)
IC50 [2]: 5 nM

MBP 85–99 peptide
IC50 [2]: 5 nM

MBP 86–99 truncated peptide (row label printed as (85–99))
IC50 [2]: 3 nM

MBP 87–99 truncated peptide
IC50 [2]: 5 nM

MBP 88–99 truncated peptide
IC50 [2]: 30 nM

human PLP peptide PLP 40–60
IC50 [1]: 200 nM

human PLP peptide PLP 95–116
IC50 [1]: 1480 nM
